Experimental findings from article PMC3103603 (Immunity, 2011) are described below.

The experiment concerns the target T1, wild-type human B7-H2Ig fusion protein (human, UniProt O75144 19-256).
T1 sequence (looked up): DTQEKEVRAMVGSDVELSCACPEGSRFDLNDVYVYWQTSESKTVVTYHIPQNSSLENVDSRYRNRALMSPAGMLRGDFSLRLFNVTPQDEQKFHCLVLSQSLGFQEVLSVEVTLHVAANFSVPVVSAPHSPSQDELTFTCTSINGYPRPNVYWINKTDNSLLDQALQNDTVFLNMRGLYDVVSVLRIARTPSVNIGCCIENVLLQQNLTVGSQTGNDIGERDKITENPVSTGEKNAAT
Nature of the experiment: flow cytometry on cells. On the technique in general: In flow cytometry, cells or beads pass a laser one at a time.

B1: human ICOSIg fusion protein (Fc fusion, UniProt Q9Y6W8 21-140, looked up)
chain: EINGSANYEMFIFHNGGVQILCKYPDIVQQFKMQLLKGGQILCDLTKTKGSGNTVSIKSLKFCHSQLSNNSVSFFLYNLDHSHANYYFCNLSIFDPPPFKVTLTGGYLHIYESQLCCQLK
Turning to B1, the binding result is “binds”.
